From paper PMC4622719
Read-outs that look alike come from different tables or passages of the source.

Legend:
[1] = molecular target: human neonatal Fc receptor (human) (UniProt P55899); test: SPR
[2] = molecular target: adalimumab (human); test: BLI
[3] = molecular target: adalimumab (human); test: BLI; remark: listed apart in the source

Sequence of UniProt P55899 (P55899 24-297): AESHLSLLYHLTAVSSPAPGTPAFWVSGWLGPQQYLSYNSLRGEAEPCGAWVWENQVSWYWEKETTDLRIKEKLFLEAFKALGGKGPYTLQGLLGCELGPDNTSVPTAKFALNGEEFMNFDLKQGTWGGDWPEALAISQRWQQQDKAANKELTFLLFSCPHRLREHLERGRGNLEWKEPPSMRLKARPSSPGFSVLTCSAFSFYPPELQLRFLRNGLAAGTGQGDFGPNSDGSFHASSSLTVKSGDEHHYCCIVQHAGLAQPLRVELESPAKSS

| Substance | KD1 [1] | KD2 [1] | ka1 [1] | ka2 [1] | kd1 [1] | kd2 [1] | koff [2] | Kd [3] | koff [3] | kon [3] |
| --- | --- | --- | --- | --- | --- | --- | --- | --- | --- | --- |
| adalimumab (antibody) | 8.77 nM | 467 nM | 906000 M⁻¹ s⁻¹ | 362000 M⁻¹ s⁻¹ | 0.0073 s⁻¹ | 0.141 s⁻¹ |  |  |  |  |
| recombinant human tumor necrosis factor (from UniProt P01375 77-233) (ligand) |  |  |  |  |  |  | 4.81e-05 s⁻¹ | 4.6 pM | 5.5e-06 s⁻¹ | 1.32e+06 M⁻¹ s⁻¹ |
